Source: paper PMC4128009

Tests used:
Assay in all cases: pull-down
[1] = target: His6-Spx F113A (Bacillus subtilis) (UniProt O31602)
[2] = target: His6-Spx L114A (Bacillus subtilis) (UniProt O31602)
[3] = target: His6-Spx R112A (Bacillus subtilis) (UniProt O31602)

decrease of YjbH binding compared to the WT [1]: 80%
decrease of YjbH binding compared to the WT [2]: 50%
decrease of YjbH binding compared to the WT [3]: 80%
Substance: Geobacillus thermodenitrificans YjbH (GtYjbH), without tag (natural protein)
